Here are results for 1 molecule from publication PMC9351184, “Survey of the binding preferences of RNA-binding proteins to RNA editing events”.

The target of data set [1] is hnRNPC dsRBD (Homo sapiens, UniProt P07910 16-57). Kind of data set: EMSA; 1 uM labelled RNA, 3 uM protein, 10 ul, on ice 45 min; 6% PAGE in 0.5x TBE (gel pre-run at 4 C); binding buffer, salt and pH not stated (proteins dialyzed in 25 mM Tris-HCl pH 8.0, 150 mM NaCl; final elution from cation exchange/heparin up to 1 M NaCl, then SEC). Particulars: protein: recombinant; tags: 10xHis (pSUMOH10), removed with TEV; label: 5' DY781. In general terms: In EMSA bound probe runs differently from free probe, usually more slowly.

The target in data set [2] is T1, ILF3 dsRBD (Homo sapiens, UniProt Q12906 398-590).
T1 sequence: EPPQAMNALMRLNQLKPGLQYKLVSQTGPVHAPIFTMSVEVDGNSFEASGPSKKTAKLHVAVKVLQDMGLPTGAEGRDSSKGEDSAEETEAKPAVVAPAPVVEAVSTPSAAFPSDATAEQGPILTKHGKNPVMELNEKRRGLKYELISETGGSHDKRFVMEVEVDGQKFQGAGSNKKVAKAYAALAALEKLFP
The data set is described as above. Particulars: protein: recombinant; tags: N-terminal GST (pGood6p), removed with TEV; label: 5' DY781.

hnRNPC dsRBD, sequence (P07910 16-57): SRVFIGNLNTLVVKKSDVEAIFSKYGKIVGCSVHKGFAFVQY

In the case of AGUGGCUUAUGCCUGUGAUCCCAACAC (ssRNA, A-to-I editing site represented by G as printed (A/G); inosine not stated) [edited RNA], the binding result in data set [1] and in data set [2] was “binds” each time.
